Measurements as given in the supplement of paper PMC9112550, “Optimization of the antimicrobial peptide Bac7 by deep mutational scanning” (BMC Biology, 2022).

Test system: Escherichia coli TOP10
Test: shrunken log2 fold change of peptide-encoding DNA abundance (4.5 h post-induction vs induction); higher = less antimicrobial activity (less host growth inhibition)
Details: time post-induction: 4.5 h; library: site-saturation at positions 5, 18, 19, 20
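Further: peptides expressed intracellularly from a pBAD plasmid library in pooled LB shake-flask culture, induced with 0.3% L-arabinose, DNA abundance read by NGS, three biological replicates, DESeq2 with apeglm shrinkage.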

Sequence | shrunken log2 fold change
RRIRCRPPRLPRPRPRPSRWPRP | 0.599
RRIRMRPPRLPRPRPRPQRDPRP | 0.0785
RRIRARPPRLPRPRPRPSFSPRP | -0.134
RRIRWRPPRLPRPRPRPPDAPRP | 0.5
RRIRQRPPRLPRPRPRPVFVPRP | -0.0727
RRIRDRPPRLPRPRPRPAWYPRP | -0.0946
RRIRQRPPRLPRPRPRPKIPPRP | -0.0111
RRIRMRPPRLPRPRPRPQHGPRP | 0.0121
RRIRTRPPRLPRPRPRPVRHPRP | -0.041
RRIRDRPPRLPRPRPRPTFGPRP | 0.228
RRIRHRPPRLPRPRPRPTPMPRP | 0.0946
RRIRIRPPRLPRPRPRPWKYPRP | -0.254
RRIRCRPPRLPRPRPRPRQKPRP | 0.466
RRIRQRPPRLPRPRPRPEMRPRP | 1.13
RRIRGRPPRLPRPRPRPTQLPRP | 1.02
RRIRDRPPRLPRPRPRPGHHPRP | 0.0913
RRIRRRPPRLPRPRPRPDFCPRP | -0.0293
RRIRERPPRLPRPRPRPMWMPRP | -0.0314
RRIRYRPPRLPRPRPRPLDIPRP | -1.69
RRIRHRPPRLPRPRPRPGIGPRP | -0.0787
RRIRVRPPRLPRPRPRPNEVPRP | 0.00656
RRIRIRPPRLPRPRPRPSNMPRP | -0.353
RRIRNRPPRLPRPRPRPFHAPRP | -0.0245
RRIRWRPPRLPRPRPRPPQGPRP | 0.226
RRIRDRPPRLPRPRPRPYEQPRP | -0.0135

Sequence | shrunken log2 fold change
RRIRIRPPRLPRPRPRPKKDPRP | -0.602
RRIRQRPPRLPRPRPRPMIWPRP | -0.79
RRIRSRPPRLPRPRPRPRLHPRP | 0.15
RRIRYRPPRLPRPRPRPVLGPRP | 0.0727
RRIRWRPPRLPRPRPRPQHCPRP | -0.115
RRIRMRPPRLPRPRPRPPNMPRP | 0.268
RRIRWRPPRLPRPRPRPWMAPRP | 0.0321
RRIRWRPPRLPRPRPRPDPWPRP | 0.0147
RRIRCRPPRLPRPRPRPFTTPRP | -0.286
RRIRDRPPRLPRPRPRPWFPPRP | -0.234
RRIRKRPPRLPRPRPRPLKKPRP | 0.0649
RRIRKRPPRLPRPRPRPRFIPRP | 0.346
RRIRSRPPRLPRPRPRPQPPPRP | 0.489
RRIRHRPPRLPRPRPRPYQTPRP | -0.112
RRIRTRPPRLPRPRPRPWPGPRP | 0.0416
RRIRLRPPRLPRPRPRPRYCPRP | -0.357
RRIRSRPPRLPRPRPRPSSTPRP | -0.397
RRIRWRPPRLPRPRPRPYPPPRP | -0.332
RRIRGRPPRLPRPRPRPLDEPRP | 1.24
RRIRHRPPRLPRPRPRPKTFPRP | -0.45
RRIRIRPPRLPRPRPRPNINPRP | -0.918
RRIRCRPPRLPRPRPRPPNVPRP | 0.213
RRIRQRPPRLPRPRPRPYQCPRP | -0.263
RRIRSRPPRLPRPRPRPGRWPRP | 0.657
RRIRNRPPRLPRPRPRPAHKPRP | 0.00838

Sequence | shrunken log2 fold change
RRIRQRPPRLPRPRPRPAPIPRP | 0.34
RRIRMRPPRLPRPRPRPPEVPRP | 1.25
RRIRCRPPRLPRPRPRPNNVPRP | -0.687
RRIRDRPPRLPRPRPRPDKIPRP | 0.231
RRIRGRPPRLPRPRPRPVITPRP | -0.09
RRIRGRPPRLPRPRPRPFNRPRP | -0.0104
RRIRYRPPRLPRPRPRPLALPRP | -0.816
RRIRIRPPRLPRPRPRPEISPRP | -0.481
RRIRIRPPRLPRPRPRPGKSPRP | -0.0715
RRIRMRPPRLPRPRPRPNQMPRP | 0.217
RRIRIRPPRLPRPRPRPIVDPRP | -0.0819
RRIRDRPPRLPRPRPRPYAMPRP | 0.168
RRIRRRPPRLPRPRPRPEDQPRP | 0.196
RRIRDRPPRLPRPRPRPKRKPRP | 0.0894
RRIRPRPPRLPRPRPRPDLTPRP | 0.168
RRIRQRPPRLPRPRPRPMTKPRP | -0.0865
RRIRQRPPRLPRPRPRPYFRPRP | -0.368
RRIRRRPPRLPRPRPRPMHQPRP | -0.105
RRIRHRPPRLPRPRPRPMNKPRP | -0.329
RRIRGRPPRLPRPRPRPVFGPRP | 0.556
RRIRQRPPRLPRPRPRPVPKPRP | -0.00476
RRIRSRPPRLPRPRPRPQYAPRP | -0.282
RRIRCRPPRLPRPRPRPSDAPRP | -0.0145
RRIRIRPPRLPRPRPRPIFCPRP | -0.0695
RRIRARPPRLPRPRPRPNTHPRP | -0.309

Sequence | shrunken log2 fold change
RRIRNRPPRLPRPRPRPLHHPRP | -0.39
RRIRVRPPRLPRPRPRPRHIPRP | -0.508
RRIRCRPPRLPRPRPRPLRIPRP | -0.0238
RRIRYRPPRLPRPRPRPSLKPRP | -0.316
RRIRIRPPRLPRPRPRPRTLPRP | -0.259
RRIRGRPPRLPRPRPRPNTEPRP | 0.299
RRIRVRPPRLPRPRPRPIDRPRP | -0.0529
RRIRSRPPRLPRPRPRPDWSPRP | 0.276
RRIRMRPPRLPRPRPRPEPHPRP | 1.43
RRIRYRPPRLPRPRPRPEENPRP | -0.0116
RRIRGRPPRLPRPRPRPSHSPRP | 0.0319
RRIRCRPPRLPRPRPRPNEMPRP | -0.123
RRIRGRPPRLPRPRPRPNEFPRP | 0.141
RRIRTRPPRLPRPRPRPYPRPRP | -0.0911
RRIRERPPRLPRPRPRPWCDPRP | -0.508
RRIRTRPPRLPRPRPRPRIFPRP | -0.158
RRIRPRPPRLPRPRPRPQHWPRP | 0.265
RRIRRRPPRLPRPRPRPPGIPRP | 0.612
RRIRYRPPRLPRPRPRPYYIPRP | -1.83
RRIRWRPPRLPRPRPRPQHYPRP | -0.574
RRIRDRPPRLPRPRPRPISSPRP | 0.00884
RRIRWRPPRLPRPRPRPVRMPRP | -0.0133
RRIRLRPPRLPRPRPRPVTKPRP | 0.0485
RRIRKRPPRLPRPRPRPKEAPRP | 0.334
RRIRGRPPRLPRPRPRPGMCPRP | 0.489

Sequence | shrunken log2 fold change
RRIRCRPPRLPRPRPRPPVWPRP | 0.129
RRIRKRPPRLPRPRPRPRKAPRP | 0.384
RRIRARPPRLPRPRPRPVDSPRP | -0.0786
RRIRVRPPRLPRPRPRPAEKPRP | 0.00294
RRIRIRPPRLPRPRPRPTLCPRP | 0.0503
RRIRYRPPRLPRPRPRPLKWPRP | -0.258
RRIRVRPPRLPRPRPRPFYHPRP | -0.502
RRIRMRPPRLPRPRPRPVQMPRP | 0.247
RRIRSRPPRLPRPRPRPKSIPRP | -0.228
RRIRWRPPRLPRPRPRPCIPPRP | -0.0746
RRIRIRPPRLPRPRPRPYRVPRP | -0.0849
RRIRNRPPRLPRPRPRPVMHPRP | 0.077
RRIRSRPPRLPRPRPRPYVCPRP | -0.414
RRIRTRPPRLPRPRPRPTCRPRP | -0.0601
RRIRYRPPRLPRPRPRPKLVPRP | -0.067
RRIRERPPRLPRPRPRPFWQPRP | -0.0859
RRIRIRPPRLPRPRPRPVTQPRP | -0.0794
RRIRKRPPRLPRPRPRPYRQPRP | -0.122
RRIRKRPPRLPRPRPRPWSWPRP | 0.00624
RRIRDRPPRLPRPRPRPHMRPRP | 0.00207
RRIRGRPPRLPRPRPRPVSLPRP | 0.321
RRIRERPPRLPRPRPRPHHPPRP | -0.197
RRIRRRPPRLPRPRPRPWLEPRP | 0.0128
RRIRSRPPRLPRPRPRPNVIPRP | 0.0185
RRIRVRPPRLPRPRPRPPLPPRP | 0.325
